This test concerns the target SSPG1d peptide ([…]). In words: ELISA. (In general: ELISA stands for enzyme-linked immunosorbent assay.)

Consider one molecule from US20080104734A1 (published 2008).

B1: polyhistidine tagged scFv-SSPG1d-peptide (scFv)
scFv: MDIVLTQSPAIMSASPGEKVTMTCSASSSVSYMHWYQQKSSTSPKLWIYDTSKLASGVPGRFSGSGSGNSYSLTISSMEAEDVATYYCFQGSGYPLTFGAGTKLEIKRGAGGSGGGGSGGGGSGGGGSQVQLQQSGAELVRPGSSVKISCKASGYAFSNYWMNWVKQRPGQGLEWIGQIYPGYGDAKYNGKFKGKATLTADISSSTAYMQLSSLTSEDSAVYFCARSSYEANWGQGTLVTVSALEHHHHHH
Broadly, the Kd is the equilibrium constant for the complex coming apart. Read a high Kd as a looser complex. For the molecule B1, the affinity, expressed as Kd, was 26.7 nM.
